This note sets out measurements from US20250179187A1 (REJUVERON SENESCENCE THERAPEUTICS, published 2025).

In general, Kd refers to the concentration at which binding is half-saturated. Broadly, the koff is the first-order rate constant of dissociation.

To fix the notation:
T1: recombinant human PD-L2 (human PD-L2 antigen) (human, UniProt Q9BQ51 20-219, limits assumed)
T1 construct: The Biacore analyte and the ELISA antigen are only called human PD-L2 antigen / recombinant hPD-L2; Whole entry named; also called hPD-L2; recombinant hPD-L2
T1 sequence (looked up): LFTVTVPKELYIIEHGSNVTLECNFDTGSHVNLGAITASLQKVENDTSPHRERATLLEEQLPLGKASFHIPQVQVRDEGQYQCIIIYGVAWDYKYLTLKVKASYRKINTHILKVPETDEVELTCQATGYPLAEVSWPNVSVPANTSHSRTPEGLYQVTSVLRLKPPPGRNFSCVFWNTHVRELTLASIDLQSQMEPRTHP

B1: VH0/VK1 (antibody, V domains shown)
VH: QVQLQQSGAELVRPGTSVKVSCKASGYAFSNYFIEWVKQRPGQGLEWIGLNIPGSGGSNYAEKFKGKATLTADKSSSTAYMQLSSLTSEDSAVYFCARRRLPPDWYFDVWGTGTTVTVSS
VL: DVVMTQSPLSLPVTLGQPASISCRSSQSLVHSDGNTYLHWYQQKPGQPPKLLIYKVSNRFSGVPDRFSGSGSGTDFTLKISRVEAEDVGVYFCSQSTHVPWTFGGGTKVEIK
notes: hIgG1 backbone, CHO expressed
B2: VH7/VK1 (antibody, V domains shown)
VH: QVQLVQSGAELKKPGSSVKVSCKASGYAFSNYFIEWVKQPPGKGLEWIGLNIPGSGGSNYAEKFKGRATITADKSTSTAYMELSSLRSEDTAVYYCARRRLPPDWYFDVWGQGTTVTVSS
VL: DVVMTQSPLSLPVTLGQPASISCRSSQSLVHSDGNTYLHWYQQKPGQPPKLLIYKVSNRFSGVPDRFSGSGSGTDFTLKISRVEAEDVGVYFCSQSTHVPWTFGGGTKVEIK
notes: hIgG1 backbone, CHO expressed
B3: VH3/VK3 (antibody, V domains shown)
VH: QVQLVQSGAEVKKPGSSVKVSCKASGYAFSNYFIEWVKQPPGKGLEWIGLNIPGSGGSNYAEKFKGRVTITADKSTSTAYMELSSLRSEDSAVYFCARRRLPPDWYFDVWGQGTTVTVSS
VL: DVVMTQSPLSLPVTLGQPASISCRSSQSLVHSGGNTYLHWYQQKPGQPPKLLIYKVSNRFSGVPDRFSGSGSGTDFTLKISRVEAEDVGVYFCSQSTHVPWTFGGGTKVEIK
notes: hIgG1 backbone, CHO expressed
B4: VH1/VK2 (antibody, V domains shown)
VH: QVQLVQSGAELKKPGSSVKVSCKASGYAFSNYFIEWVKQPPGKGLEWIGLNIPGSGGSNYAEKFKGRATITADKSTSTAYMELSSLTSEDSAVYFCARRRLPPDWYFDVWGQGTTVTVSS
VL: DVVMTQSPLSLPVTLGQPASISCRSSQSLVHSDGNTYLHWYQQKPGQPPKLLIYKVSNRFSGVPDRFSGSGSGTDFTLKISRVEAEDVGVYYCSQSTHVPWTFGGGTKVEIK
notes: hIgG1 backbone, CHO expressed
B5: VH2/VK1 (antibody, V domains shown)
VH: QVQLVQSGAEVKKPGSSVKVSCKASGYAFSNYFIEWVKQPPGKGLEWIGLNIPGSGGSNYAEKFKGRATITADKSTSTAYMELSSLRSEDSAVYFCARRRLPPDWYFDVWGQGTTVTVSS
VL: DVVMTQSPLSLPVTLGQPASISCRSSQSLVHSDGNTYLHWYQQKPGQPPKLLIYKVSNRFSGVPDRFSGSGSGTDFTLKISRVEAEDVGVYFCSQSTHVPWTFGGGTKVEIK
notes: hIgG1 backbone, CHO expressed
B6: VH3/VK1 (antibody, V domains shown)
VH: QVQLVQSGAEVKKPGSSVKVSCKASGYAFSNYFIEWVKQPPGKGLEWIGLNIPGSGGSNYAEKFKGRVTITADKSTSTAYMELSSLRSEDSAVYFCARRRLPPDWYFDVWGQGTTVTVSS
VL: DVVMTQSPLSLPVTLGQPASISCRSSQSLVHSDGNTYLHWYQQKPGQPPKLLIYKVSNRFSGVPDRFSGSGSGTDFTLKISRVEAEDVGVYFCSQSTHVPWTFGGGTKVEIK
notes: hIgG1 backbone, CHO expressed
B7: VH2/VK2 (antibody, V domains shown)
VH: QVQLVQSGAEVKKPGSSVKVSCKASGYAFSNYFIEWVKQPPGKGLEWIGLNIPGSGGSNYAEKFKGRATITADKSTSTAYMELSSLRSEDSAVYFCARRRLPPDWYFDVWGQGTTVTVSS
VL: DVVMTQSPLSLPVTLGQPASISCRSSQSLVHSDGNTYLHWYQQKPGQPPKLLIYKVSNRFSGVPDRFSGSGSGTDFTLKISRVEAEDVGVYYCSQSTHVPWTFGGGTKVEIK
notes: hIgG1 backbone, CHO expressed
B8: VH1/VK3 (antibody, V domains shown)
VH: QVQLVQSGAELKKPGSSVKVSCKASGYAFSNYFIEWVKQPPGKGLEWIGLNIPGSGGSNYAEKFKGRATITADKSTSTAYMELSSLTSEDSAVYFCARRRLPPDWYFDVWGQGTTVTVSS
VL: DVVMTQSPLSLPVTLGQPASISCRSSQSLVHSGGNTYLHWYQQKPGQPPKLLIYKVSNRFSGVPDRFSGSGSGTDFTLKISRVEAEDVGVYFCSQSTHVPWTFGGGTKVEIK
notes: hIgG1 backbone, CHO expressed
B9: VH3/VK2 (antibody, V domains shown)
VH: QVQLVQSGAEVKKPGSSVKVSCKASGYAFSNYFIEWVKQPPGKGLEWIGLNIPGSGGSNYAEKFKGRVTITADKSTSTAYMELSSLRSEDSAVYFCARRRLPPDWYFDVWGQGTTVTVSS
VL: DVVMTQSPLSLPVTLGQPASISCRSSQSLVHSDGNTYLHWYQQKPGQPPKLLIYKVSNRFSGVPDRFSGSGSGTDFTLKISRVEAEDVGVYYCSQSTHVPWTFGGGTKVEIK
notes: hIgG1 backbone, CHO expressed
B10: VH2/VK3 (antibody, V domains shown)
VH: QVQLVQSGAEVKKPGSSVKVSCKASGYAFSNYFIEWVKQPPGKGLEWIGLNIPGSGGSNYAEKFKGRATITADKSTSTAYMELSSLRSEDSAVYFCARRRLPPDWYFDVWGQGTTVTVSS
VL: DVVMTQSPLSLPVTLGQPASISCRSSQSLVHSGGNTYLHWYQQKPGQPPKLLIYKVSNRFSGVPDRFSGSGSGTDFTLKISRVEAEDVGVYFCSQSTHVPWTFGGGTKVEIK
notes: hIgG1 backbone, CHO expressed
B11: VH4/VK2 (antibody, V domains shown)
VH: QVQLVQSGAEVKKPGSSVKVSCKASGYAFSNYFIEWVKQPPGKGLEWIGLNIPGSGGSNYAEKFKGRVTITADKSTSTAYMELSSLRSEDTAVYYCARRRLPPDWYFDVWGQGTTVTVSS
VL: DVVMTQSPLSLPVTLGQPASISCRSSQSLVHSDGNTYLHWYQQKPGQPPKLLIYKVSNRFSGVPDRFSGSGSGTDFTLKISRVEAEDVGVYYCSQSTHVPWTFGGGTKVEIK
notes: hIgG1 backbone, CHO expressed
B12: VH1/VK1 (antibody, V domains shown)
VH: QVQLVQSGAELKKPGSSVKVSCKASGYAFSNYFIEWVKQPPGKGLEWIGLNIPGSGGSNYAEKFKGRATITADKSTSTAYMELSSLTSEDSAVYFCARRRLPPDWYFDVWGQGTTVTVSS
VL: DVVMTQSPLSLPVTLGQPASISCRSSQSLVHSDGNTYLHWYQQKPGQPPKLLIYKVSNRFSGVPDRFSGSGSGTDFTLKISRVEAEDVGVYFCSQSTHVPWTFGGGTKVEIK
notes: hIgG1 backbone, CHO expressed
B13: VH7/VK3 (antibody, V domains shown)
VH: QVQLVQSGAELKKPGSSVKVSCKASGYAFSNYFIEWVKQPPGKGLEWIGLNIPGSGGSNYAEKFKGRATITADKSTSTAYMELSSLRSEDTAVYYCARRRLPPDWYFDVWGQGTTVTVSS
VL: DVVMTQSPLSLPVTLGQPASISCRSSQSLVHSGGNTYLHWYQQKPGQPPKLLIYKVSNRFSGVPDRFSGSGSGTDFTLKISRVEAEDVGVYFCSQSTHVPWTFGGGTKVEIK
notes: hIgG1 backbone, CHO expressed
B14: VH4/VK3 (antibody, V domains shown)
VH: QVQLVQSGAEVKKPGSSVKVSCKASGYAFSNYFIEWVKQPPGKGLEWIGLNIPGSGGSNYAEKFKGRVTITADKSTSTAYMELSSLRSEDTAVYYCARRRLPPDWYFDVWGQGTTVTVSS
VL: DVVMTQSPLSLPVTLGQPASISCRSSQSLVHSGGNTYLHWYQQKPGQPPKLLIYKVSNRFSGVPDRFSGSGSGTDFTLKISRVEAEDVGVYFCSQSTHVPWTFGGGTKVEIK
notes: hIgG1 backbone, CHO expressed
B15: VH4/VK1 (antibody, V domains shown)
VH: QVQLVQSGAEVKKPGSSVKVSCKASGYAFSNYFIEWVKQPPGKGLEWIGLNIPGSGGSNYAEKFKGRVTITADKSTSTAYMELSSLRSEDTAVYYCARRRLPPDWYFDVWGQGTTVTVSS
VL: DVVMTQSPLSLPVTLGQPASISCRSSQSLVHSDGNTYLHWYQQKPGQPPKLLIYKVSNRFSGVPDRFSGSGSGTDFTLKISRVEAEDVGVYFCSQSTHVPWTFGGGTKVEIK
notes: hIgG1 backbone, CHO expressed
B16: VH1/VK0 (antibody, V domains shown)
VH: QVQLVQSGAELKKPGSSVKVSCKASGYAFSNYFIEWVKQPPGKGLEWIGLNIPGSGGSNYAEKFKGRATITADKSTSTAYMELSSLTSEDSAVYFCARRRLPPDWYFDVWGQGTTVTVSS
VL: DVVMTQTPLSLPVSLGDQASISCRSSQSLVHSDGNTYLHWYLQKPGQSPKLLIYKVSNRFSGVPDRFSGSGSGTDFTLKISRVEAEDLGVYFCSQSTHVPWTFGGGTKLEIK
notes: hIgG1 backbone, CHO expressed

The target of this experiment is T1, recombinant human PD-L2 (human PD-L2 …). As to the kind of experiment: SPR (Biacore 8K), single cycle kinetics, antibody in culture supernatant, human PD-L2 antigen. An excerpt:
Table 2: Single cycle kinetic parameters of chimeric (VH0/VK0) and humanized variants (tested as cell culture supernatants) binding to human PD-L2 antigen as determined using the Biacore 8K. As used herein, the term “KD” is intended to refer to the dissociation equilibrium constant of a particular antibody-antigen interaction, ka is the binding rate constant and kd is the dissociation rate constant. The binding affinity of antibodies of the disclosed invention may be measured or determined by standard antibody-antigen assays. The relative KD was calculated by dividing the KD of the humanized variant by that of the VH0/VK0 assayed in the same experiment.
In the case of B1, the equilibrium dissociation constant (Kd) turned out to be 0.0379 nM, the “Relative KD (KD of variant / KD of VH0/VK0)” value came to 1.06 and the koff was found to be 9.88e-05 s⁻¹.

As for B2, the Kd is 0.0499 nM, the “Relative KD (KD of variant / KD of VH0/VK0)” value was found to be 1.39 and the koff turned out to be 0.000113 s⁻¹.

For the molecule B3, the Kd was found to be 0.314 nM, the “Relative KD (KD of variant / KD of VH0/VK0)” value worked out at 8.77 and the koff was determined as 0.000497 s⁻¹.

As for B4, the Kd is 0.0487 nM, the “Relative KD (KD of variant / KD of VH0/VK0)” value stood at 1.36 and the koff was 0.000116 s⁻¹.

For the molecule B5, the Kd is 0.0551 nM, the “Relative KD (KD of variant / KD of VH0/VK0)” value came out at 1.54 and the koff was found to be 0.000119 s⁻¹.

As for B6, the equilibrium dissociation constant (Kd) amounted to 0.0606 nM, the “Relative KD (KD of variant / KD of VH0/VK0)” value turned out to be 1.69 and the off-rate (koff) is 0.000128 s⁻¹.

B7: the Kd came out at 0.0555 nM, the “Relative KD (KD of variant / KD of VH0/VK0)” value came out at 1.55 and the koff amounted to 0.000122 s⁻¹.

Consider B8, for which the Kd was determined as 0.223 nM, the “Relative KD (KD of variant / KD of VH0/VK0)” value is 6.23 and the koff was 0.000365 s⁻¹.

As to B9, the Kd came to 0.0604 nM, the “Relative KD (KD of variant / KD of VH0/VK0)” value turned out to be 1.69 and the koff is 0.000132 s⁻¹.

Consider B10, for which the Kd is 0.267 nM, the “Relative KD (KD of variant / KD of VH0/VK0)” value stood at 7.46 and the koff is 0.000414 s⁻¹.

Turning to B11, the Kd stood at 0.0596 nM, the “Relative KD (KD of variant / KD of VH0/VK0)” value amounted to 1.66 and the off-rate (koff) turned out to be 0.000129 s⁻¹.

B12: the Kd is 0.0475 nM, the “Relative KD (KD of variant / KD of VH0/VK0)” value worked out at 1.33 and the off-rate (koff) was found to be 0.00011 s⁻¹.

For the molecule B13, the Kd stood at 0.222 nM, the “Relative KD (KD of variant / KD of VH0/VK0)” value came to 6.2 and the koff stood at 0.000344 s⁻¹.

For the molecule B14, the Kd is 0.287 nM, the “Relative KD (KD of variant / KD of VH0/VK0)” value stood at 8.02 and the off-rate (koff) was found to be 0.000466 s⁻¹.

Take B15: the dissociation constant (Kd) came out at 0.0586 nM, the “Relative KD (KD of variant / KD of VH0/VK0)” value stood at 1.64 and the off-rate constant (koff) came out at 0.000125 s⁻¹.

Turning to B16, the Kd is 0.0427 nM, the “Relative KD (KD of variant / KD of VH0/VK0)” value was determined as 1.19 and the koff turned out to be 0.000109 s⁻¹.
